Data published in patent US20230295324A1.

Legend:
[1] = target: human OX40 on cells (CHO-K1/hu OX40) (human) (UniProt P43489); assay: FACS, CHO-K1/hu OX40 cells
[2] = target: human OX40 on cells (CHO-K1/hu OX40) (human) (UniProt P43489); assay: cell-based or functional assay
[3] = target: human OX40 on cells (CHO-K1/hu OX40) (human) (UniProt P43489); assay: FACS, blocking of biotin-human OX40L on CHO-K1/hu OX40 cells

human OX40 on cells (CHO-K1/hu OX40) (human), sequence (P43489 29-277): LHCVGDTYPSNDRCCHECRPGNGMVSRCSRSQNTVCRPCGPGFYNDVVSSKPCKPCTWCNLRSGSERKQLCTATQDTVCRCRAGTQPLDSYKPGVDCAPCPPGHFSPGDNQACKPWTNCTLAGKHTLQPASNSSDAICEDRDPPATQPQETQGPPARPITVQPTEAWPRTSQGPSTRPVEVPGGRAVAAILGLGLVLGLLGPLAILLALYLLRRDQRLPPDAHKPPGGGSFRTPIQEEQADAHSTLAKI

Maximum MFI [1]: 501 MFI
EC50, HEK293/OX40/NF-kb luciferase reporter [2]: 136 nM
Maximum fluorescence signal value, HEK293/OX40/NF-kb luciferase reporter [2]: 140000 luminescence
Maximum inhibition rate (%) [3]: 0%
B1: PR002075 (antibody, human IgG1, V domains shown)
VH: EVQLVETGGGLIQPGGSLRLSCAASGFTFSSYAMSWVRQAPGKGLEWVSAISGSGGNTYYADSVRGRFTISRDNSKNTLYLQMNSLRAEDTAVYYCANGITGTTDVDYWGQGTRVTVSS
